Assay [1] addresses VIP receptor of guinea pig lung membranes (guinea pig). Description: competition with 0.01 nM 125I-VIP, guinea pig lung membranes.
Assay [2] concerns the target VIP receptor on human cells (human). Description: competition with 125I-VIP on HMC1 cells.
Assay [3] shares this target. Description: competition with 125I-VIP on HT29 cells.
Assay [4] has the same target. Description: competition with 125I-VIP on human PMNCs.
The target is the same in assay [5]. Description: competition with 125I-VIP on KU812 cells.
Assay [6] shares this target. Briefly: competition with 125I-VIP on PANC1 cells.
The target is the same in assay [7]. Briefly: competition with 125I-VIP on COLO320 cells.
For assay [8] the target is unchanged. Briefly: competition with 125I-VIP on human platelets.

Values joined by “and” are separate entries in the source; they are usually repeats but may differ in a detail not shown here. Equal values may be shown once. No end group written: not given here. Some results are limits rather than exact numbers.

With AGCHSDAVFTDNYTRLRKQMAVKKYLNSILN-NH2 [P915], the IC50 (as a rule, the concentration that gives 50% inhibition) in assay [1] came to 50 nM.

B1: ReO-complexed P917 (peptide)
peptide: HSDAVFTDNYTRLRKQMAVKKYLNSILNC
modifications: C-terminal C(BAT): S-(N6,N9-bis(2-mercapto-2-methylpropyl)-6,9-diazanonan-1-yl)cysteine; C-terminal amide; non-radioactive ReO complexed to the chelating moiety
Regarding B1, the concentration for half-maximal inhibition (IC50) in assay [2] amounted to 7 nM; in assay [3], 2.2 nM; in assay [4], 2.7 nM; in assay [5], 1 nM; in assay [6], 3.7 nM; in assay [7] it was 2 nM. For the same molecule, the IC50 in assay [8] is 0.8 nM; in assay [1], 6.9 nM. Also, the Ki (commonly the equilibrium dissociation constant of an inhibitor or competing ligand from its target) in assay [1] came out at 6.7 nM.

B2: P917 (peptide)
peptide: HSDAVFTDNYTRLRKQMAVKKYLNSILNC
modifications: C-terminal C(BAT): S-(N6,N9-bis(2-mercapto-2-methylpropyl)-6,9-diazanonan-1-yl)cysteine; C-terminal amide
For B2, in assay [1], the % inhibition @ 0.01 µM worked out at 83% and the half-inhibitory concentration (IC50) was under 10 nM.
As to AGCHSDAVFTDNYTRLRKQMAVKKYLNSILN-NH2 (also: non-radioactive ReO complexed to the chelating moiety) [ReO-complexed P915], the IC50 in assay [2] was found to be 15 nM; in assay [3], 7 nM; in assay [4], 7.5 nM; in assay [6], 14 nM; in assay [7] it was 6.7 nM; in assay [8], 4.5 nM. For the same molecule, in assay [1], the IC50 is < 10 nM and > 1 nM.

B3: ReO-complexed P887 (peptide)
peptide: HSDAVFTDNYTRLRKQMAVKKYLNSILNKGC
modifications: (ε-K): lysine 29 linked through its ε-amino group; C-terminal amide; non-radioactive ReO complexed to the chelating moiety
For the molecule B3, the half-maximal inhibitory concentration (IC50) is 8.5 nM in assay [2]; 6.6 nM in assay [3]; 6 nM in assay [4]; 5.2 nM in assay [5]; over 10 nM in assay [6]; 6 nM in assay [7]. Also, the half-maximal inhibitory concentration (IC50) in assay [8] stood at 6 nM; in assay [1] it was 20 nM.

B4: P887 (peptide)
peptide: B3 peptide
modifications: (ε-K): lysine 29 linked through its ε-amino group to the carboxyl group of the preceding residue; C-terminal amide
Regarding B4, in assay [1], the % inhibition @ 0.01 µM was determined as 68% and the 50% inhibitory concentration (IC50) is under 10 nM.
Regarding HSDAVFTDNYTRLRKQMAVKKYLNSILNGGC-NH2 (also: non-radioactive ReO complexed to the chelating moiety) [ReO-complexed P916], the IC50 amounted to 7 nM in assay [2]; 8.5 nM in assay [3]; 6.5 nM in assay [4]; 12.5 nM in assay [6]; 4 nM in assay [7]; 3 nM in assay [8]. Further, the IC50 in assay [1] came out at 20 nM.
Regarding HSDAVFTDNYTRLRKQMAVKKYLNSILN-NH2 [Vasoactive intestinal peptide (VIP)], the IC50 in assay [2] came out at 7 nM; in assay [3] it was 1.2 nM; in assay [4], 5.5 nM; in assay [5] it was 0.8 nM; in assay [6], 4.2 nM; in assay [7], 1.5 nM. The IC50 in assay [8] is 4 nM.
As for HSDAVFTDNYTRLRKQMAVKKYLNSILNGGC-NH2 [P916], in assay [1], the % inhibition @ 0.01 µM was found to be 79% and the half-maximal inhibitory concentration (IC50) is under 10 nM.
